Experiment [1] has as its target FrlB deglycase (Salmonella) (Salmonella). Briefly: native MS; 3 uM FraB or FrlB mixed with 150, 300 or 450 uM 2-deoxy-6-P-GA; 200 mM ammonium acetate (pH adjusted to 7.4 for FraB); mixed at 25 °C, incubated 30 min at room temperature; nano-ESI, Q Exactive UHMR Orbitrap.
The target in experiment [2] is FraB, a Salmonella deglycase (Salmonella). The description is as above.
Another experiment deals with T1, FrlB (Salmonella enterica, UniProt Q8ZJX7).
T1 construct: gene STM4540; recombinant FrlB, His6 tag removed
T1 sequence (Q8ZJX7 1-343): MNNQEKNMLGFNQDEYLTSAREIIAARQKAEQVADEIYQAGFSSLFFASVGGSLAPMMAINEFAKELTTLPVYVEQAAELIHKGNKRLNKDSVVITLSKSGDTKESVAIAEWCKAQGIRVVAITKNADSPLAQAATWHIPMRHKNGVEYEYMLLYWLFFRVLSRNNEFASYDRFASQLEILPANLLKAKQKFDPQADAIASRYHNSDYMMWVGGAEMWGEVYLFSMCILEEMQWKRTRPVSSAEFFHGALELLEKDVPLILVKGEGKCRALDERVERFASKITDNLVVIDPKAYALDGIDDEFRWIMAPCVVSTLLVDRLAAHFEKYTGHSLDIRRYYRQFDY
Briefly: native mass spectrometry (dimer with one or two ligands); about […] inhibition at […] in coupled assay. The format is binding.

A further experiment deals with T2, FraB (Salmonella enterica, UniProt Q8ZLD0).
T2 construct: gene STM3601; 325-aa construct, N-terminal His6-tag
The experiment is described as follows: G6PDH-coupled deglycase assay, Michaelis-Menten analysis; binding confirmed by native MS. The format is biochemical.

Usually stoichiometry N stands for a count of units in the complex or per binding partner. Turning to FrlB deglycase (Salmonella) (enzyme), in experiment [1], the stoichiometry N was determined as 2.

The molecule FraB, a Salmonella deglycase (enzyme) returned a stoichiometry N in experiment [2] of 2.

For orientation: Ki means the dissociation constant of the complex between target and ligand, obtained from inhibition or displacement. A high value points to lower affinity. On to `O=C(O)C[C@@H](O)[C@H](O)[C@H](O)COP(=O)(O)O` [2-deoxy-6-P-GA, 2-deoxy-6-phosphogluconate], for which, on FrlB, the “native mass spectrometry (dimer with one or two ligands); about 50% inhibition a” value is “These results confirm the direct interaction of 2-deoxy-6-P-GA to FraB and FrlB”. Besides, the Ki on FraB stood at 3.3 µM.

The values above are taken from paper PMC9609667, “Serendipitous Discovery of a Competitive Inhibitor of FraB, a Salmonella Deglycase and Drug Target” (Pathogens, 2022).
